Target: bovine serum albumin (Bos taurus, UniProt P02769)
Assay: carbon nanotube field-effect transistor

Sequence of bovine serum albumin (P02769 25-607): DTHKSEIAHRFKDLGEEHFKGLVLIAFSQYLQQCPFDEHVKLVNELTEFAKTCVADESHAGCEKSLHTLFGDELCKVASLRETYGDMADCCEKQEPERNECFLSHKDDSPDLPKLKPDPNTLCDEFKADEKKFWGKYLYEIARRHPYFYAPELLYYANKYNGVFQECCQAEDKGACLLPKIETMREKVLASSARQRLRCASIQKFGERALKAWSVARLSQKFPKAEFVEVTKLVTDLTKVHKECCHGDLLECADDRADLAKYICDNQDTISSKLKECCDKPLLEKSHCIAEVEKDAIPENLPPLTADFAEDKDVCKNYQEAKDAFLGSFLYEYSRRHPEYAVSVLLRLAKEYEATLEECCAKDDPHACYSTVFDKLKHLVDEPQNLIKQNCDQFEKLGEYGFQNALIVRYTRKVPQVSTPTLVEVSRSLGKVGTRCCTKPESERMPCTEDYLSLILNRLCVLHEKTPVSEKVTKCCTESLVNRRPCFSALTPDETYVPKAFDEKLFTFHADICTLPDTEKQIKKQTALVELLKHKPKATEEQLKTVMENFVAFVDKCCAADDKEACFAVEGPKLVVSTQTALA

binding result: no binding (tested: 450 ng/mL)
B1: anti-OPN 23C3 scFv (scFv, V domains shown)
VH: EVQLVESGGGLVQPKGSLKISCAASGFTFNIYAMNWVRQAPGKGLEWVARIRSQSNNYTTYYADSVKDRFTISRDDSQSMLYLQMNNLKTEDTAMYYCVRQMGDYWGQGTTLTVSS
VL: YIQMTQSPASLSVSVGETVTITCRASENIYSFLAWYQQKQGKSPQLLVYAATNLADGVPSRFSGSGSGTQFSLKINSLQSEDFGTYYCQHFWGTPFTFGSGTKLEIK

Reference: publication PMC3383883 (ACS Nano, 2012)
